Experimental findings from patent US20250382588A1, “CHIMERIC AAV AND USES THEREOF” (priority 2023, published 2025) are described below.

Changes are numbered by the printed parent chain. Numbers in names are those of the source.

The labels stand for the following.
B1: AAV8R4: AAV8R capsid mutant R490Q, SEQ ID NO: 5 (protein)
chain: MAADGYLPDWLEDNLSEGIREWWALKPGAPKPKANQQKQDDGRGLVLPGYKYLGPFNGLDKGEPVNAADAAALEHDKAYDQQLQAGDNPYLRYNHADAEFQERLQEDTSFGGNLGRAVFQAKKRVLEPLGLVEEGAKTAPGKKRPVEPSPQRSPDSSTGIGKKGQQPARKRLNFGQTGDSESVPDPQPLGEPPAAPSGVGPNTMAAGGGAPMADNNEGADGVGSSSGNWHCDSTWLGDRVITTSTRTWALPTYNNHLYKQISNGTSGGATNDNTYFGYSTPWGYFDFNRFHCHFSPRDWQRLINNNWGFRPKRLSFKLFNIQVKEVTQNEGTKTIANNLTSTIQVFTDSEYQLPYVLGSAHQGCLPPFPADVFMIPQYGYLTLNDGSQAVGRSSFYCLEYFPSQMLRTGNNFQFTYTFEDVPFHSSYAHSQSLDRLMNPLIDQYLYYLSRTQTTGGTANTQTLGFSQGGPNTMANQAKNWLPGPCYRQQQVSTTTGQNNNSNFAWTAGTKYHLNGRNSLANPGIAMATHKDDEERFFPSNGILIFGKQNAARDNADYSDVMLTSEEEIKTTNPVATEEYGIVADNLQRGNLADQDYTKTARQAATADVNSQGALPGMVWQNRDVYLQGPIWAKIPHTDGNFHPSPLMGGFGLKHPPPQILIKNTPVPADPPTTFNQSKLNSFITQYSTGQVSVEIEWELQKENSKRWNPEIQYTSNYYKSINVDFAVNTEGVYSEPRPIGTRYLTRNL
B2: AAV8R9: AAV8R capsid mutant V125I + F536Y, SEQ ID NO: 10 (protein)
chain: B1 chain with V125I, Q490R, F536Y
B3: AAV8R7: AAV8R capsid mutant A606S, SEQ ID NO: 8 (protein)
chain: B1 chain with Q490R, A606S
B4: AAV8R3: AAV8R capsid mutant Y447F, SEQ ID NO: 4 (protein)
chain: B1 chain with Y447F, Q490R
B5: AAV8R8: AAV8R capsid mutant T495A, SEQ ID NO: 9 (protein)
chain: B1 chain with Q490R, T495A
B6: AAV8R2: AAV8R capsid mutant N411S, SEQ ID NO: 3 (protein)
chain: B1 chain with N411S, Q490R
B7: AAV8R1: AAV8R capsid mutant V183E, SEQ ID NO: 2 (protein)
chain: B1 chain with V183E, Q490R
B8: AAV8R5: AAV8R capsid mutant V125I, SEQ ID NO: 6 (protein)
chain: B1 chain with V125I, Q490R
B9: AAV8R14: AAV8R capsid mutant V125I + A606S + T495A, SEQ ID NO: 15 (protein)
chain: B1 chain with V125I, Q490R, T495A, A606S
B10: AAV8R13: AAV8R capsid mutant V125I + F536Y + T495A, SEQ ID NO: 14 (protein)
chain: B1 chain with V125I, Q490R, T495A, F536Y
B11: AAV8R6: AAV8R capsid mutant F536Y, SEQ ID NO: 7 (protein)
chain: B1 chain with Q490R, F536Y
B12: AAV8R10: AAV8R capsid mutant V125I + A606S, SEQ ID NO: 11 (protein)
chain: B1 chain with V125I, Q490R, A606S
B13: AAV8R11: AAV8R capsid mutant V125I + T495A, SEQ ID NO: 12 (protein)
chain: B1 chain with V125I, Q490R, T495A

In this experiment the test system is striatal D1 MSNs (striatonigral projection neurons). As to the kind of experiment: Retrograde labeling of striatonigral projection neurons after AAV injection into the SNr. Type of experiment: in vivo, mice. Particulars: AAV8R capsid mutants; numbers of labeled neurons per animal. The procedure:
To improve efficiency, multiple rounds of mutations of AAV capsids were performed on a series of different serotypes. Mutations were introduced at three sites in the AAV8 capsid protein to make AAV8R, including N385D, insertion of […] (SEQ ID NO: 31) at position 588, and TS711-712IN. Two additional mutations of V183E and N411S were incorporated into the AAV8R12 capsid protein (FIG. 1A). The labeling pattern of the AAV8R12 capsid and G88 promoter combination was determined.
First, the polypeptide fragment RGNLADODYTKTARQAATAD (SEQ ID NO.: 31) was inserted at the N587-R588 position; two other point mutations of the AAV2 Cap protein were made to develop rAAV2-retro. Similar mutations were then placed at equivalent positions for four other AAV serotypes (FIGS. 1A-IC and 25, TABLE 1), AAV1/5/6/8 (FIG. 1A). […] When administered into the SNr, 4.86±0.22 times EYFP positive MSNs in mice infected by AAV8R-hSyn-EYFP were observed as compared to those infected by rAAV2-retro-hSyn-EYFP (FIG. 2A-2C).
Baseline infectivity of rAAV2-retro was approximately 0.2±0.03×10^4 cells per striatal hemisphere (using a hSyn promoter) (TABLE 2). […] Compared to the current standard retrograde AAV, rAAV2-retro, AAV8R12 labeled 7.72±0.78-times more MSNs after nigral delivery (FIG. 2B-2C, TABLE 1). […] The AAV8R12 was generated using the AAV8R plasmid as a template.
Mice were anesthetized with sodium pentobarbital (Nembutal; 80 mg/kg, i.p.), and then placed into a stereotaxic device (KOPF). Eye cream was applied on both corneas to avoid dehydration. The skull above the targeted areas was thinned with a dental drill and carefully removed. Injections were conducted with a 10 μL syringe connected to a 33-Gauge needle (Neuros; Hamilton), using a microsyringe pump (Legato 130, KD Scientific). A total volume of 200 nL virus was injected into the SNr at a speed of 20 nL/min. The coordinates for the SNr were 3.4 mm posterior, 1.3 mm lateral, 4.8 mm ventral to the bregma.
HEK293T cells (ATCC) were co-transfected by calcium phosphate with an AAV vector plasmid, an AAV Rep-Cap plasmid (rAAV2-retro, AAV1R, AAV5R, AAV6R, AAV8R, and AAV8R1-14), and the pAdDeltaF6 helper plasmid (Addgene, 112867) harboring the adenoviral genes required for the AAV life cycle. HEK293T cells grown in 15 cm cell culture dishes were co-transfected with the mixture of three plasmids (1:1:1) at 80% confluency. 48-72 hours post-transfection, cells were collected and resuspended in a buffer containing 150 mM NaCl and 100 mM Tris-HCl (pH 8.0). Cells were lysed by repeated freeze-thaw cycles in liquid nitrogen and a 37° C. water bath. AAV particles were purified and concentrated using Millipore Amicon 100K columns (Merck Millipore, UFC910008). Encapsidated viral DNA was quantitated by qPCR (Thermo Fisher) with primers recognizing the viral WPRE and/or ITR sequences following denaturation of the AAV particles using Proteinase K. Titers were calculated as genome copies per milliliter.
Images were acquired using a confocal microscope (Carl Zeiss, LSM880) and an Axiolmager.Z1 microscope with apotome (Carl Zeiss). Brain structures were identified microscopically and in digital photos using a mouse brain atlas. To analyze the number of EYFP+ cells in the striatum, slices from rostral to caudal striatum were used. Every sixth section was analyzed, and numbers of EYFP+ cells were multiplied by six to acquire the approximate total number and mean number of cells per animal. Images were processed using ImageJ (NIH, USA), and final quantifications were independently performed manually by two blinded experimenters.
As to B1, the “Labeling Efficiency in Striatonigral Pathway” value (“Labeling Efficiency” for short) is on record as “+ (<5 k)”.

Consider B2, for which the “Labeling Efficiency” value is reported as “+ (<5 k)”.

As for B3, the “Labeling Efficiency” value is “+ (<5 k)”.

Take B4: the “Labeling Efficiency” value is “+ (<5 k)”.

As for B5, the “Labeling Efficiency” value is listed as “+ (<5 k)”.

Regarding B6, the “Labeling Efficiency” value was “+ (<5 k)”.

In the case of B7, the “Labeling Efficiency” value is on record as “+ (<5 k)”.

On to B8, for which the “Labeling Efficiency” value is listed as “+ (<5 k)”.

B9: the “Labeling Efficiency” value was “++ (5 k-10 k)”.

Turning to B10, the “Labeling Efficiency” value was “++ (5 k-10 k)”.

As for B11, the “Labeling Efficiency” value is “+ (<5 k)”.

As to B12, the “Labeling Efficiency” value is reported as “+ (<5 k)”.

On to B13, for which the “Labeling Efficiency” value is reported as “+ (<5 k)”.
